{
  "source": "patent US6399314B1",
  "about": "“Methods of detection of amyloidogenic proteins” (American Cyanamid Company, priority 1999, dated 2002)",
  "key": {"β-amyloid protein 1-40": {"target": "T1, β-amyloid protein 1-40 (Homo sapiens, UniProt P05067)", "T1 construct": "Aβ (1-40) was dissolved in 100% hexafluoroisopropanol", "T1 sequence (P05067 672-711 limits assumed)": "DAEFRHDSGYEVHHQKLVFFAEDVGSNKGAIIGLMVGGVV", "test": "Fluorescence spectroscopy of Congo red complexes with amyloid peptide", "assay_type": "binding", "source_text": "3. Fluorescence spectroscopy was used to differentiate complexes of Congo red. Congo red binds to preformed fibrils as well as to intermediate aggregate forms of the amyloid polypeptide. […] The fluorescence excitation spectrum of Congo red in the aggregate-bound state is also red shifted relative to the free form of the […]. Changes in the fluorescence properties of Congo red are dependent on the aggregated state of the […]. The differences in the observed spectral characteristics of the coaggregates and complexes of the fibrillar polypeptide with Congo red are due to the differences in the relative hydrophobicity of the binding sites and to the number of bound Congo red molecules in the complexes with preformed fibrils and coaggregates.\nThe fluorescence emission spectra of complexes of Congo red were obtained after diluting the peptide fivefold into a buffered solution. Congo red was added to freshly diluted fibrillar peptide and the fluorescence spectrum was scanned at a final concentration of 10 μM of peptide. The concentrations of peptide and Congo red in the fluorescence assay were 10 μM and 8.6 μM respectively. The differences in the fluorescence intensities and emission wavelengths of the coaggregates and preformed aggregate-complexes, were due to the relative differences in the hydrophobicity of the binding sites in the two instances."}, "[1]": {"system": "rat fetal (E18) hippocampal cultures", "test": "Neurotoxicity assay (LDH release)", "assay_type": "cell-based", "conditions": "for Toxicity to neuronal cultures: 72 hour toxicity assay", "procedure": "Neurotoxicity Assay. Peptide was aggregated according to the end points determined in the CD and fluorescence assay and applied to primary neuronal cell cultures to assess cytotoxicity of the aggregated peptide. The release of LDH was used to monitor cell viability in the presence of Aβ and Congo red.\nAβ(1-40) toxicity was assessed using eight day-in-vitro (DIV) rat fetal (E18) hippocampal cultures. The cells were cultured in 48-well dishes previously coated with […] 0.1 mg/ml of poly-L-lysine (100 μl/well) and, subsequently, with 100 μl/well of 5 μg/ml of mouse laminin. The cells were seeded at a density of 92,300 cells/well in a total volume of 500 μl of NEUROBASAL™ medium containing 1XB27 supplement, 5% heat inactivated and qualified fetal bovine serum, 0.5 mM glutamine, 50 μ/ml penicillin, and 0.05 mg/ml streptomycin, and were initially placed in humidified 5% CO2 in air. After twenty-four hours, the medium was replaced with fresh medium lacking the penicillin, streptomycin, and fetal bovine serum and the cultures were thereafter maintained in air containing 5% CO2 and 9% O2. Fresh medium was substituted into each well on day five. On the seventh day in vitro, the medium was replaced with antioxidant free B27 supplemented medium lacking the penicillin, streptomycin, and fetal bovine serum. The toxicity test was initiated on the eighth day in vitro by substituting into each well 500 μl of the medium used on day seven (as the control treatment) or an experimental solution prepared with the final (control) medium. Each experimental solution was tested on cultures contained in five wells. Toxicity was assessed on the eleventh day in vitro using the lactic acid dehydrogenase (LDH; Sigma 340-UV) assay. Aggregated peptide was diluted five-fold to a final concentration of 10 uM, for the toxicity assays. Complexes of Congo red with preformed aggregates and those formed in co-aggregates were tested in the cellular assays along with aggregated peptide in vehicle controls."}, "[2]": {"target": "T2, aggregated peptide (Aβ(1-40)) (Homo sapiens, UniProt P05067)", "T2 construct": "Aβ(1-40) was purchased from Anaspec (San Jose, Calif.); purchased Anaspec (San Jose, Calif.); host or cells: synthetic peptide", "T2 sequence (P05067 672-711 limits assumed)": "as above", "test": "Quenching of thioflavin fluorescence by titration with Congo red", "assay_type": "binding", "conditions": "for Mode of binding to aggregated peptide: Congo red and thioflavin together on aggregated peptide", "source_text": "In these experiments, thioflavin was complexed with aggregated peptide prior to titration with increasing amounts of Congo red. The resulting decrease in fluorescence intensity is due to energy transfer of the fluorescence emission of thioflavin to Congo red. Therefore, assays that rely on thioflavin alone are likely to generate false positives in primary assays, while spectroscopic assays described in this invention would identify the more promising inhibitors of amyloidogenesis.\n(§1) Spectroscopic Assays. To determine the extent of aggregation, aliquots of the peptide were removed at various time intervals (up to nine hours), and diluted into PBS buffer-containing 10 μM thioflavin. The final concentrations of peptide and thioflavin in the fluorescence assay were 10 μM. The fluorescence intensities of the peptide-thioflavin complex were measured at excitation and emission wavelengths of 435 and 485 nm, respectively, after the reaction had equilibrated for five minutes. Fluorescence spectral scans were made using 435 nm excitation and 485 nm emission wavelengths using a SPEX™ fluorolog-2 spectrofluorometer (Instruments S.A.®, Jobin Yvon-Spex, Edison, N.J.). For the Congo red experiments, peptide-thioflavin complex was titrated with increasing concentrations of Congo red from 0.1 to 3.5 micromolar concentrations. The fluorescence intensity changes were measured at the above-mentioned spectral wavelengths. When fluorescence intensities were measured in a plate reader, the peptide was diluted into PBS buffer-containing 10 μM thioflavin, to a final volume of 100 μL."}, "Aβ (1-40)": {"target": "T3, Aβ (1-40) (Homo sapiens, UniProt P05067)", "T3 construct": "Aβ (1-40) was dissolved in 100% hexafluoroisopropanol", "T3 sequence (P05067 672-711 limits assumed)": "as above", "test": "CD spectroscopy of peptide aged in the presence of Congo red (coaggregates)", "assay_type": "biochemical", "conditions": "far-UV CD", "source_text": "Circular Dichroism Spectroscopy. Conformational change of the peptide from the random coil to the β-sheet form, during aging, was monitored using changes to the molar ellipticity of the peptide at 200, 218, or 225 nm. This assay was also used to determine if the changes in the CD spectra occurred concurrently with the changes in the fluorescence spectra of thioflavin. The CD spectrum of the peptide was scanned at various time points to correlate the formation of thioflavin-binding macromolecular assemblies with the appearance of β-sheet conformation.\nCD spectra were recorded on a JASCO™ spectropolarimeter model J715 (Jasco, Easton, Md.) at room temperature in a 0.1 cm pathlength cell. Typically, the peptide samples were aliquoted at various time intervals for fluorescence and the CD spectra were scanned using the remaining solution. The CD spectra of the peptide were recorded in the far-UV between 190-260 nm. The spectral results are expressed as deg.[…].dmol^−1.\nAmyloid peptide (Aβ) was aged in the absence and presence of Congo red as described below: Aβ (1-40) was dissolved in 100% hexafluoroisopropanol to produce a final concentration of 200 or 400 μM. To aid dissolution of peptide, the solution was sonicated briefly, for about five seconds. An appropriate volume of the peptide solution was transferred to an amber vial and the solvent was evaporated under a stream of nitrogen. […]"}, "[3]": {"test": "Thioflavin fluorescence assay of the extent of aggregation of Aβ(1-40) in different buffers/media", "assay_type": "physicochemical", "design": "key to Percent Aggregation in HEPES: ++ indicates aggregates were formed but not quantitated because end point was not reached", "conditions": "rotary shaker 500 rpm", "source_text": "Fluorescence Spectroscopy. Thioflavin binds amyloid fibrils to induce a characteristic hyperchromic fluorescence shift in the spectrum (LeVine, J. Exp. Clin. Invest., 2:1-6, 1995). The induced fluorescence due to thioflavin is specific for amyloid β-pleated fibrils, but not for other β-sheet structures or for the soluble oligomeric forms of the peptide. Free thioflavin is a weak fluorophore with an excitation maximum at 330 nm. Upon binding to the amyloid fibrils, the fluorescence of thioflavin is enhanced with a red shift in the excitation spectrum by 100 nm, relative to the free form. We have used the increase in fluorescence intensity at excitation and emission wavelengths of 440 nm and 485 nm, respectively, to characterize the aggregation event.\nas §1\nPreparation ofAmyloid Peptide. Aβ(1-40) was purchased from Anaspec (San Jose, Calif.) and its chemical purity was verified using reverse phase HPLC, ESI-MS and protein sequencing methods. The lyophilized peptide was dissolved in hexafluoroisopropanol (HFIP) solvent to aid in disaggregation of peptide. Peptide in HFIP solvent, was stored at −80° C. Prior to use, peptide solution was thawed and the solvent was evaporated under a stream of nitrogen. The peptide was dissolved in buffer to obtain a concentration of 50 μM, sonicated approximately twenty to forty seconds, and then vortexed briefly, approximately five seconds or less, to aid dissohltion of peptide. To determine the effects of media on the rates of aggregation, peptide was dissolved in one of the following buffers: PBS, 50 mM HEPES™ or in NEUROBASAL™ medium. Peptide solutions were dispensed into microtiter plates at a final concentration of […] in 100 μL. Aggregation was initiated by shaking plates continuously in a rotary shaker."}},
  "data": [
    {"compound": "Nc1c(/N=N/c2ccc(-c3ccc(/N=N/c4cc(S(=O)(=O)[O-])c5ccccc5c4N)cc3)cc2)cc(S(=O)(=O)[O-])c2ccccc12.[Na+].[Na+]", "note": "[Congo red]", "values": [
      {"measurement": "Fluorescence enhancement relative to the free form", "setting": "β-amyloid protein 1-40; Congo red co-aggregated with the amyloid polypeptide", "result": "eight-fold"},
      {"measurement": "Fluorescence enhancement relative to the free form", "setting": "β-amyloid protein 1-40; complex between preformed fibrils and Congo red", "result": "two-fold"},
      {"measurement": "Effect on toxicity of Aβ", "setting": "[1]; Congo red complexed with preformed aggregates and in co-aggregates", "result": "attenuates the toxicity"},
      {"measurement": "Neuroprotection of cell cultures exposed to amyloid peptide", "setting": "[1]; hippocampal cultures, LDH release", "result": "neuroprotective"},
      {"measurement": "Mode of binding to aggregated peptide", "setting": "[2]", "result": "non-competitively"},
      {"measurement": "Quenching of fluorescence of free thioflavin", "setting": "[2]; free thioflavin", "result": 50, "unit": "%"},
      {"measurement": "Quenching of fluorescence of peptide-bound thioflavin", "setting": "[2]; peptide-bound thioflavin, Congo red 0.1 to 3.5 micromolar", "result": "greater than one order of magnitude"},
      {"measurement": "Effect on aggregation rate of the peptide", "setting": "Aβ (1-40)", "result": "slowed down"}
    ]},
    {"compound": "Aβ (1-40): synthetic β-amyloid peptide corresponding to the first 40 amino acids of Aβ, purchased from Anaspec", "values": [
      {"measurement": "Toxicity to neuronal cultures", "setting": "[1]; aggregated peptide (aged for four hours)", "result": "toxic"},
      {"measurement": "Toxicity to neuronal cultures", "setting": "[1]; fresh peptide", "result": "non-toxic"},
      {"measurement": "Percent Aggregation in HEPES", "setting": "[3]; aggregation time 0 hr", "result": 0, "unit": "%"},
      {"measurement": "Percent Aggregation in PBS", "setting": "[3]; aggregation time 0 hr", "result": 0, "unit": "%"},
      {"measurement": "Percent Aggregation in NEUROBASAL Medium", "setting": "[3]; aggregation time 0 hr, relative to thioflavin/Aβ fluorescence at 0 and 4 hr", "result": 0, "unit": "%"},
      {"measurement": "Percent Aggregation in HEPES", "setting": "[3]; aggregation time 1 hr", "result": 0, "unit": "%"},
      {"measurement": "Percent Aggregation in NEUROBASAL Medium", "setting": "[3]; aggregation time 1 hr", "result": 0, "unit": "%"},
      {"measurement": "Percent Aggregation in PBS", "setting": "[3]; aggregation time 1 hr", "result": 0, "unit": "%"},
      {"measurement": "Percent Aggregation in HEPES", "setting": "[3]; aggregation time 2 hr", "result": 0, "unit": "%"},
      {"measurement": "Percent Aggregation in NEUROBASAL Medium", "setting": "[3]; aggregation time 2 hr", "result": 76, "unit": "%"},
      {"measurement": "Percent Aggregation in PBS", "setting": "[3]; aggregation time 2 hr", "result": 51, "unit": "%"},
      {"measurement": "Percent Aggregation in HEPES", "setting": "[3]; aggregation time 4 hr", "result": "++"},
      {"measurement": "Percent Aggregation in NEUROBASAL Medium", "setting": "[3]; aggregation time 4 hr", "result": 100, "unit": "%"},
      {"measurement": "Percent Aggregation in PBS", "setting": "[3]; aggregation time 4 hr", "result": 100, "unit": "%"}
    ]},
    {"compound": "Cc1ccc2c(c1)sc(-c1ccc(N(C)C)cc1)[n+]2C.[Cl-]", "note": "[thioflavin, Thioflavin T]", "values": [
      {"measurement": "Mode of binding to aggregated peptide", "setting": "[2]", "result": "non-competitively"}
    ]}
  ]
}
